The test has as its target T1, FITC-labeled recombinant human PSMA protein (Acro, #PSA-HF244) (human, UniProt Q04609 44-750, FITC label).
T1 construct: Bought reagent
Kind of test: flow cytometry, gating of CAR(+) cells for T cell subset analysis (FIG. 79). On the procedure: Eight days after the start of stimulation, the CAR-T cells constructed in Example 8 were analyzed for T cell subsets using a flow cytometer: they were classified into stem cell-like memory T cells (T memory stem cells, CD45RA⁺CCR7⁺), central memory T cells (CD45RA⁻CCR7⁺), effector memory T cells (CD45RA⁻ CCR7⁻) and effector T cells (CD45RA⁺CCR7⁻) according to the presence or absence of the expression of CD45RA and CCR7. […] In addition, when analyzing PSMA-specific CAR(+) cells, FITC-labeled recombinant human PSMA protein (Acro, #PSA-HF244) was used to stain the CAR.
(Flow cytometry measures light scatter and fluorescence of single cells or particles in a stream.)

T1 sequence (Q04609 44-750 limits assumed): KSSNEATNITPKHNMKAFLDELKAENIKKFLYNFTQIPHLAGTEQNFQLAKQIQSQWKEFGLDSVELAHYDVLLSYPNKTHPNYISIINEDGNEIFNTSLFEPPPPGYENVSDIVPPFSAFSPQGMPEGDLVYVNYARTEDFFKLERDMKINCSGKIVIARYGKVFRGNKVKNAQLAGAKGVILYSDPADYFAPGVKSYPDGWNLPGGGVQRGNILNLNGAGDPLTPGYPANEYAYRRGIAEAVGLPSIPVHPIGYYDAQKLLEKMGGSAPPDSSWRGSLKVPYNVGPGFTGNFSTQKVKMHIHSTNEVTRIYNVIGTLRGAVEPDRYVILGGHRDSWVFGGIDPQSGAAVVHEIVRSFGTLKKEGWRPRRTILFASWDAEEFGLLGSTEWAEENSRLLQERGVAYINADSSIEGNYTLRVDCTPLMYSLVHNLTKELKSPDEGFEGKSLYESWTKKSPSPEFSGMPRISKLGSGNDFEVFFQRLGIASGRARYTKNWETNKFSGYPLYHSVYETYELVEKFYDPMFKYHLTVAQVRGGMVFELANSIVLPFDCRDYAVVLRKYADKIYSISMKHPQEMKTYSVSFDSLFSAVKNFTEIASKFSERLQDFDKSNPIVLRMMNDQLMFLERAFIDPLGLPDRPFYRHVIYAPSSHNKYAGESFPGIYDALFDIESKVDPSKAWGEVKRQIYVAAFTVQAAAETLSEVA

B1: PSMA-specific CAR (Pbbz): scFv derived from the PSMA-specific J591 antibody, CD8 hinge-transmembrane domain, 4-1BB co-stimulatory domain, CD3ζ intracellular … (other)
chain: DIVMTQSHKFMSTSVGDRVSIICKASQDVGTAVDWYQQKPGQSPKLLIYWASTRHTGVPDRFTGSGSGTDFTLTITNVQSEDLADYFCQQYNSYPLTFGAGTMLDLKRGGGGSGGGGSGGGGSEVQLQQSGPELKKPGTSVRISCKTSGYTFTEYTIHWVKQSHGKSLEWIGNINPNNGGTTYNQKFEDKATLTVDKSSSTAYMELRSLTSEDSAVYYCAAGWNFDYWGQGTTLTVSSTTTPAPRPPTPAPTIASQPLSLRPEACRPAAGGAVHTRGLDFACDIYIWAPLAGTCGVLLLSLVITLYCKRGRKKLLYIFKQPFMRPVQTTQEEDGCSCRFPEEEEGGCELRVKFSRSADAPAYQQGQNQLYNELNLGRREEYDVLDKRRGRDPEMGGKPRRKNPQEGLYNELQKDKMAEAYSEIGMKGERRRGKGHDGLYQGLSTATKDTYDALHMQALPPR
notes: The Pbbz#F, #C, #S2 and #FCS2 cells are treated as carrying the same CAR
Regarding B1, the binding result was “binds”.

For the origin of these results see US20230212254A1 (published 2023).
